Test results: US20150132307A1 (Hoffmann-La Roche, published 2015)

T1: Human IL17C (human, UniProt Q9P0M4 19-197)
T1 sequence: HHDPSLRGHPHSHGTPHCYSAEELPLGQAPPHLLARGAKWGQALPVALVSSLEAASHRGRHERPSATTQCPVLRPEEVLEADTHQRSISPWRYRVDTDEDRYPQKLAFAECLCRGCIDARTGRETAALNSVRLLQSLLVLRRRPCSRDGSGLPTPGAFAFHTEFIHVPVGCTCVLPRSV

T2: Human IL17F (human, UniProt Q96PD4 31-163)
T2 sequence: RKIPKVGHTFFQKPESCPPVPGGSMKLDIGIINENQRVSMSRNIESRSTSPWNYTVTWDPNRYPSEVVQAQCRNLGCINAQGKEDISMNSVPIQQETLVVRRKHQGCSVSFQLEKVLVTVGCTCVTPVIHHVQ

T3: Human IL17D (human, UniProt Q8TAD2 16-202, limits assumed)
T3 sequence: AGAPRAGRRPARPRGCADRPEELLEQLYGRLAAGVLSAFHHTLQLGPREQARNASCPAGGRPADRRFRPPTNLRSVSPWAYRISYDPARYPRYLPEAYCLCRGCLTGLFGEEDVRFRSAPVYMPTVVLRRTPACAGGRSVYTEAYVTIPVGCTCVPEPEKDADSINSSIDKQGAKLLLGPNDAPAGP

T4: Human IL17B (human, UniProt Q9UHF5 21-180)
T4 sequence: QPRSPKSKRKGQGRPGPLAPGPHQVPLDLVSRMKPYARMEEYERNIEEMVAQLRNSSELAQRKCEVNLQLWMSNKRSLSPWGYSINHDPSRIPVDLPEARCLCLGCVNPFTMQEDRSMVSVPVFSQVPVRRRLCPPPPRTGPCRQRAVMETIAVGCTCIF

T5: IL-17 F/F (human, UniProt Q96PD4 31-163)
T5 construct: read as the homodimer of IL17F
T5 sequence: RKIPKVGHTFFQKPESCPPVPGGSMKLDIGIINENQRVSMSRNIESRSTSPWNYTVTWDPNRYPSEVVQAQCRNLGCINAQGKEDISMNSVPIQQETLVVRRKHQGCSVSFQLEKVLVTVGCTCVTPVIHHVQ

T6: human Tweak-Fc (human, UniProt O43508 106-249, limits assumed)
T6 construct: not shown: Fc part
T6 sequence: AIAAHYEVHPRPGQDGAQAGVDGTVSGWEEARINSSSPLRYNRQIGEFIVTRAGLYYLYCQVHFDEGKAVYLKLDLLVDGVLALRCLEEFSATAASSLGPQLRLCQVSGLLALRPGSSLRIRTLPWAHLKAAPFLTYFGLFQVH

T7: Recombinant human TWEAK (R&D Systems; Cat. #1090-TW/CF) (human, UniProt O43508 97-249, limits assumed)
T7 sequence: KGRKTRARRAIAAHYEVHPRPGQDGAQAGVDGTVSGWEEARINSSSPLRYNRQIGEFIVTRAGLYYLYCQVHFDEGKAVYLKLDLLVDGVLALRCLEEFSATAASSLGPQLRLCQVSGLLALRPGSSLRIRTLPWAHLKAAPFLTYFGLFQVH


What was measured:
Human IL17C = target: T1, Human IL17C; experiment: ELISA on coated IL-17 subtype; OD relative to IL-17A binding (100)
Method: (§1) NUNC® Maxisorp plates (96-well) are coated with recombinant human IL-17 (Peprotech #200-17, www.peprotech.com) at a concentration of 0.5 μg/ml in PBS ([…]). Plates are incubated at 37° C. on an orbital shaker with agitation for 2 hours. Thereafter coating solution is removed and 100 μl/well PBSTC (phosphate buffered saline, 0.05% Tween®20, 2% chicken serum) is added. Plates are incubated at room temperature for 1 hour. […] The second antibody is diluted 1:10000 in PBSTC and plates are incubated for 1 hour at room temperature with agitation. Second antibody is removed, plates are washed three times with 200 μl/well PBST (phosphate buffered saline, 0.05% Tween®20) and 100 μl/well ABTS® (Roche Diagnostics GmbH) is added. Optical density is measured at 405/492 nm in relation to IL-17A binding (set as 100%). Binding to other human IL-17 subtypes (IL-17B, IL-17C, IL-17D, IL-17E and IL-17F) were performed with the same assay format.

Human IL17F = target: T2, Human IL17F; experiment: as above
Method: as §1

Human IL17D = target: T3, Human IL17D; experiment: as above
Method: as §1

Human IL17B = target: T4, Human IL17B; experiment: as above
Method: as §1

[1] = target: T8, recombinant human IL-17 (Peprotech #200-17) (human, UniProt Q16552 20-155); experiment: cell-based or functional assay
T8 sequence (Q16552 20-155 limits assumed): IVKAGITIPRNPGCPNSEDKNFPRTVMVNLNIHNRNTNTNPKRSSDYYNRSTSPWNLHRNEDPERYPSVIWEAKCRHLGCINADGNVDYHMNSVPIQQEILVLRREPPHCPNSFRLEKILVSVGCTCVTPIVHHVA

[2] = target: T8, recombinant human IL-17 (Peprotech …); experiment: cell-based or functional assay; remark: listed apart in the source
IL-17 F/F = target: T5, IL-17 F/F; experiment: SPR (BIAcore T100), antibody captured by anti-human F(ab')2, IL17 as analyte, 25 C
Method: (§2) Around 12000 resonance units (RU) of the capturing system (10 μg/ml goat anti human F(ab′)2; Order Code: 28958325; GE Healthcare Bio-Sciences AB, Schweden) were coupled on a CMS chip at pH 5.0 by using an amine coupling kit supplied by the GE Healthcare. The sample and system buffer was PBS-T (10 mM phosphate buffered saline including 0.05% Tween20) pH 7.4. The bispecific antibody was captured by injecting a 50 nM solution for 1 min at a flow of 10 μl/min. Association was measured by injection human IL17 in various concentrations in solution for 3 min at a flow of 30 μl/min starting with 50 nM in 1:1 dilutions. The dissociation phase was monitored for up to 5 min and triggered by switching from the sample solution to running buffer. The surface was regenerated by two times 60 sec. washing with a glycin pH 2.1 solution at a flow rate of 30 μl/min. Bulk refractive index differences were corrected by subtracting the response obtained from a goat anti human F(ab′)2 surface. Blank injections are also subtracted (=double referencing). For calculation of apparent KD and other kinetic parameters the Langmuir 1:1 model was used.

human IL17A/A = human IL17A/A (human, UniProt Q16552 24-155, limits assumed); experiment: SPR (BIAcore T100), antibody captured by anti-human F(ab')2, IL17 as analyte, 25 C, apparent KD, 1:1 model
Chain of human IL17A/A (Q16552 24-155 limits assumed): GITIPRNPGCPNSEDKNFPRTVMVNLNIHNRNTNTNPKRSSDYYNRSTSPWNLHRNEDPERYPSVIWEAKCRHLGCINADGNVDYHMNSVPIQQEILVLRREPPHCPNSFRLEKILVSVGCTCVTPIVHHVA
Method: as §2

IL-17 A/F = target: T9, IL-17 A/F (human, UniProt Q16552 24-155; Q96PD4 31-163); experiment: SPR (BIAcore T100), antibody captured by anti-human F(ab')2, IL17 as analyte, 25 C, 1:1 model
T9 construct: read as the heterodimer of IL17A and IL17F
T9 sequence (Q16552 24-155 limits assumed, one chain of several): as the sequence (Q16552 24-155 limits assumed) above
Method: as §2

human Tweak-Fc [3] = target: T6, human Tweak-Fc; experiment: SPR (BIAcore T100), TWEAK ligand (Tweak-Fc) amine-coupled on C1 chip, bispecific antibody as analyte, 25 C
Source text: (§3) The BIAcore® system is well established for the study of molecule interactions. SPR-technology is based on the measurement of the refractive index close to the surface of a gold coated biosensor chip. Changes in the refractive index indicate mass changes on the surface caused by the interaction of immobilized ligand with analyte injected in solution. The mass increases if molecules bind immobilized ligands on the surface, and vice versa, the mass decreases in case of dissociation of the analyte from the immobilized ligand (reflecting complex dissociation). SPR allows a continuous real-time monitoring of ligand/analyte binding and thus the determination of the association rate constant (ka), the dissociation rate constant (kd), and of the equilibrium constant (KD).
(§4) Around 100 resonance units (RU) of TWEAK was immobilized on the C1 chip surface at pH 5.0 using an amine coupling kit supplied by the GE Healthcare. The sample and system buffer was PBS-T (10 mM phosphate buffered saline including 0.05% Tween20) pH 7.4. Association was measured by injection the bispecific antibody in various concentrations in solution for 3 min at a flow of 30 μl/min starting with 50 nM in 1:1 dilutions. The dissociation phase was monitored for up to 10 min and triggered by switching from the sample solution to running buffer. […]

[4] = target: T7, Recombinant human TWEAK (R&D Systems; …); experiment: cell-based or functional assay
human Tweak-Fc [5] = target: T6, human Tweak-Fc; experiment: SPR (BIAcore T100), TWEAK ligand (Tweak-Fc) amine-coupled on C1 chip, bispecific antibody as analyte, 25 C, 1:1 model
Source text: as §3
Around 100 resonance units (RU) of TWEAK was immobilized on the C1 chip surface at pH 5.0 using an amine coupling kit supplied by the GE Healthcare. The sample and system buffer was PBS-T (10 mM phosphate buffered saline including 0.05% Tween20) pH 7.4. Association was measured by injection the bispecific antibody in various concentrations in solution for 3 min at a flow of 30 μl/min starting with 50 nM in 1:1 dilutions. The dissociation phase was monitored for up to 10 min and triggered by switching from the sample solution to running buffer. The surface was regenerated by three times 30 sec. washing with a 3M MgCl2 solution at a flow rate of 30 μl/min. Bulk refractive index differences were corrected by subtracting the response obtained from a blank-coupled surface. Blank injections are also subtracted (=double referencing). For calculation of apparent KD and other kinetic parameters the Langmuir 1:1 model was used.

human Tweak-Fc [6] = target: T6, human Tweak-Fc; experiment: SPR (BIAcore T100), TWEAK ligand (Tweak-Fc) amine-coupled on C1 chip, bispecific antibody as analyte, 25 C, apparent KD, 1:1 model
Source text: as §3, §4

Row | Binder | binding result (Human IL17C) | binding result (Human IL17F) | binding result (Human IL17D) | binding result (Human IL17B) | IL-6 IC50 [nM] per valency (IL-17 induced cytokine production, HFLS-RA) [1] [nM] | IL-8 IC50 [nM] per valency (IL-17 induced cytokine production, HFLS-RA) [1] [nM] | IL-8 Inhibition IC50 (nM) (CCD-25SK cells, IL-17A + TNF-alpha) [2] | binding result (IL-17 F/F) | Kd (human IL17A/A) [nM] | Kd (IL-17 A/F) [nM] | T½ (human Tweak-Fc [3]) [h] | IC50 (nM) per valency, Tweak induced HFLS proliferation (CellTiter Glo) [4] [nM] | koff (human Tweak-Fc [5]) [s⁻¹] | kon (human Tweak-Fc [5]) [M⁻¹ s⁻¹] | Kd (human Tweak-Fc [6]) [nM]
1 | <IL17> 9C6-2B6 (antibody, V domains shown, Mouse hybridoma antibody; also called mouse clone <IL17>9C6-2B6) VH: QVQLKESGPGLVAPSQSLSITCTVSGFSLDSYGVHWVRQPPGKGLEWLVVIWSDGTTTYNSALKSRLSITKDNSKSQVFLKMNSLQTDDTAIYYCARDTHYRLYYYAMDYWGQGTSVTVSS VL: DVVMTQTPLSLPVSLGDQASISCRSSQSLVHSNGDTYFHWYLQKPGQSPKLLIYKVSNRFSGVPDRFSGSGSGTDFTLKINRVEAEDLGVYFCSQTTHAPFTFGSGTKLEIK | no binding (tested: 10 µg/ml antibody) | no binding (tested: 10 µg/ml antibody) | no binding (tested: 10 µg/ml antibody) | no binding (tested: 10 µg/ml antibody) | – | – | – | – | – | – | – | – | – | – | –
2 | <IL17> 9C6-2B6-134 (antibody, V domains shown, Humanized variant) VH: EVQLVESGGGLVQPGGSLRLSCAASGFSLDSYGVHWVRQAPGKGLEWVSVIWSDGTTTYNSALKSRFTISRDNSKNTLYLQMNSLRAEDTAVYYCARDTHYRLYYYAMDYWGQGTTVTVSS VL: DIVMTQSPLSLPVTPGEPASISCRSSQSLVHSNGDTYFHWYLQKPGQSPQLLIYKVSNRFSGVPDRFSGSGSGTDFTLKISRVEAEDVGVYYCSQTTHAPFTFGQGTKLEIK | no binding (tested: 10 µg/ml antibody) | no binding (tested: 10 µg/ml antibody) | no binding (tested: 10 µg/ml antibody) | no binding (tested: 10 µg/ml antibody) | 3.56 | 2.2 | 4.5 | – | – | – | – | – | – | – | –
3 | <IL17> 9C6-2B6-136 (antibody, V domains shown, Humanized variant with HC136 and LC136) VH: EVQLVESGGGLVQPGGSLRLSCAASGFSLDSYGVHWVRQATGKGLEWVSVIWSDGTTTYNSALKSRFTISRENAKNSLYLQMNSLRAGDTAVYYCARDTHYRLYYYAMDYWGQGTTVTVSS VL: DIVMTQSPLSLPVTPGEPASISCRSSQSLVHSNGDTYFHWYLQKPGQSPQLLIYKVSNRFSGVPDRFSGSGSGTDFTLKISRVEAEDVGVYYCSQTTHAPFTFGQGTKLEIK | no binding (tested: 10 µg/ml antibody) | no binding (tested: 10 µg/ml antibody) | no binding (tested: 10 µg/ml antibody) | no binding (tested: 10 µg/ml antibody) | 1.62 | 1.74 | 1.8 | no binding (tested: IL17 injected starting with 50 nM) | 0.18 | 0.26 | – | – | – | – | –
4 | Bispecific <Tweak-IL-17> #20 antibody (bispecific antibody, human IgG4 S228P, kappa, Bivalent one-armed scFab format, IgG4 S228P/L235E knobs-into-holes) heavy 1: EVQLVESGGGLVQPGGSLRLSCAASGFSLDSYGVHWVRQATGKGLEWVSVIWSDGTTTYNSALKSRFTISRENAKNSLYLQMNSLRAGDTAVYYCARDTHYRLYYYAMDYWGQGTTVTVSSASTKGPSVFPLAPCSRSTSESTAALGCLVKDYFPEPVTVSWNSGALTSGVHTFPAVLQSSGLYSLSSVVTVPSSSLGTKTYTCNVDHKPSNTKVDKRVESKYGPPCPPCPAPEFEGGPSVFLFPPKPKDTLMISRTPEVTCVVVDVSQEDPEVQFNWYVDGVEVHNAKTKPREEQFNSTYRVVSVLTVLHQDWLNGKEYKCKVSNKGLPSSIEKTISKAKGQPREPQVCTLPPSQEEMTKNQVSLSCAVKGFYPSDIAVEWESNGQPENNYKTTPPVLDSDGSFFLVSRLTVDKSRWQEGNVFSCSVMHEALHNHYTQKSLSLSLGK heavy 2: not shown light: DIVMTQSPLSLPVTPGEPASISCRSSQSLVHSNGDTYFHWYLQKPGQSPQLLIYKVSNRFSGVPDRFSGSGSGTDFTLKISRVEAEDVGVYYCSQTTHAPFTFGQGTKLEIKRTVAAPSVFIFPPSDEQLKSGTASVVCLLNNFYPREAKVQWKVDNALQSGNSQESVTEQDSKDSTYSLSSTLTLSKADYEKHKVYACEVTHQGLSSPVTKSFNRGEC | – | – | – | – | 1.38 | 0.9 | – | no binding (tested: IL17 injected starting with 50 nM) | < 0.2 | – | 3.63 | 0.08 | 5.31e-05 | 810000 | 0.0656
